# Patent US20160238596
# T1: Cyclised MOL488 peptide (YCQESIRLPGC attached to the scaffold derived from 1,3-dibromomethylbenzene)
# T1 chain: YCQESIRLPGC
# T2: Cyclised HNE substrate lacking the tyrosine residue (CQESIRLPGC attached to the scaffold)
# T2 chain: CQESIRLPGC
# Experiments:
# [1] = target: Indicator molecule containing the cleavable sequence GPQGIFGQ with a terminal biotin group connected via a polyethylene glycol spacer/linker (intact)
# [2] = target: T1, Cyclised MOL488 peptide (YCQESIRLPGC …)
# [3] = target: T2, Cyclised HNE substrate lacking the …
Protein,"Reader value (lateral flow, CF1522 gold) at 0.5 µg/ml MMP [1] [reader units]",preparative enzymatic cleavage followed by HPLC and mass spectrometry [2],HPLC analysis of elastase digestion [3],mass spectrometry of substrate and hydrolysed product [3]
MMP 11 (Enzo) (protein) FVLSGGRWEKTDLTYRILRFPWQLVQEQVRQTMAEALKVWSDVTPLTFTEVHEGRADIMIDFARYWHGDDLPFDGPGGILAHAFFPKTHREGDVHFDYDETWTIGDDQGTDLLQVAAHEFGHVLGLQHTTAAKALMSAFYTFRYPLSLSPDDCRGVQHLYGQPWPTVTSRTPA,280,–,–,–
Human Neutrophil elastase (Leeblo Solutions inc.) (protein) IVGGRRARPHAWPFMVSLQLRGGHFCGATLIAPNFVMSAAHCVANVNVRAVRVVLGAHNLSRREPTRQVFAVQRIFENGYDPVNLLNDIVILQLNGSATINANVQVAQLPAQGRRLGNGVQCLAMGWGLLGRNRGIASVLQELNVTVVTSLCRRSNVCTLVRGRQAGVCFGDSGSPLVCNGLIHGIASFVRGGCASGLYPDAFAPVAQFVNWIDSIIQ,–,A new product peak evolved over time,a single cleavage product results from HNE activity on the peptide,the substrate is cleaved at a single site and that the substrate otherwise remains intact
MMP 1 (Enzo) (protein) FVLTEGNPRWEQTHLTYRIENYTPDLPRADVDHAIEKAFQLWSNVTPLTFTKVSEGQADIMISFVRGDHRDNSPFDGPGGNLAHAFQPGPGIGGDAHFDEDERWTNNFREYNLHRVAAHELGHSLGLSHSTDIGALMYPSYTFSGDVQLAQDDIDGIQAIYGRSQNPVQP,478,–,–,–
MMP 12 (Enzo) (protein) FREMPGGPVWRKHYITYRINNYTPDMNREDVDYAIRKAFQVWSNVTPLKFSKINTGMADILVVFARGAHGDFHAFDGKGGILAHAFGPGSGIGGDAHFDEDEFWTTHSGGTNLFLTAVHEIGHSLGLGHSSDPKAVMFPTYKYVDINTFRLSADDIRGIQSLYG,1250,–,–,–
MMP 7 (Enzo) (protein) YSLFPNSPKWTSKVVTYRIVSYTRDLPHITVDRLVSKALNMWGKEIPLHFRKVVWGTADIMIGFARGAHGDSYPFDGPGNTLAHAFAPGTGLGGDAHFDEDERWTDGSSLGINFLYAATHELGHSLGMGHSSDPNAVMYPTYGNGDPQNFKLSQDDIKGIQKLYGKRSNSRKK,373,–,–,–
